Measured values from PMC7804408, “Functional cooperativity between the trigger factor chaperone and the ClpXP proteolytic complex” (Nature Communications, 2021).

B1: trigger factor (TF) (natural protein, E. coli, UniProt P0A850 1-432, looked up)
chain: MQVSVETTQGLGRRVTITIAADSIETAVKSELVNVAKKVRIDGFRKGKVPMNIVAQRYGASVRQDVLGDLMSRNFIDAIIKEKINPAGAPTYVPGEYKLGEDFTYSVEFEVYPEVELQGLEAIEVEKPIVEVTDADVDGMLDTLRKQQATWKEKDGAVEAEDRVTIDFTGSVDGEEFEGGKASDFVLAMGQGRMIPGFEDGIKGHKAGEEFTIDVTFPEEYHAENLKGKAAKFAINLKKVEERELPELTAEFIKRFGVEDGSVEGLRAEVRKNMERELKSAIRNRVKSQAIEGLVKANDIDVPAALIDSEIDVLRRQAAQRFGGNEKQALELPRELFEEQAKRRVVVGLLLGEVIRTNELKADEERVKGLIEEMASAYEDPKEVIEFYSKNKELMDNMRNVALEEQAVEAVLAKAKVTEKETTFNELMNQQA

Legend:
[1] = target: B1; assay: SPR; TF immobilised on a CM5 chip by amine coupling, analytes injected at 20 μL/min for 90 s; Biacore X, 22 °C; 10 mM HEPES pH 7.5, 150 mM NaCl, 3 mM EDTA, 0.005% P20; steady-state response against concentration, one-site Langmuir model; apparent Kd for ClpX; settings: both partners purified
[2] = target: HV-ClpX (N-terminally tagged ClpX) (E. coli, UniProt P0A6H1 1-424); assay: cell-based or functional assay
Chain of HV-ClpX (N-terminally tagged ClpX) (P0A6H1 whole entry): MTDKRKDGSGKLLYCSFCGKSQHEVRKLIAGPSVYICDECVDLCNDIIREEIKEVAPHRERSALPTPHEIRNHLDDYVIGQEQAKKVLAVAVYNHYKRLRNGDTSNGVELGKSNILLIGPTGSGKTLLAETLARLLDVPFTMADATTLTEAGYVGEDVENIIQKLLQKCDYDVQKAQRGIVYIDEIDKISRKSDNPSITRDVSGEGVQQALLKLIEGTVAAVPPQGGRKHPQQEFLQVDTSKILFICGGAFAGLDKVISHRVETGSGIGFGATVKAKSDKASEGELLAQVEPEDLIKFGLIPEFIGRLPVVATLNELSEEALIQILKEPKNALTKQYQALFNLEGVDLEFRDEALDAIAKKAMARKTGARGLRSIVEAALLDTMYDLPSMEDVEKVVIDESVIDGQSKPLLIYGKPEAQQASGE

Binder	Kd [1] [µM]	clipping of HV-ClpX by bound ClpP with ATP, rate of disappearance of HV-ClpX with and without TF (Fig. 3b) [2] [fold]
ClpX (enzyme, E. coli ClpX unfoldase (N-terminal ZBD and C-terminal AAA+ domain); expressed from pProEXHTb ClpX; the SPR running buffer held EDTA and no nucleotide, and the oligomeric state in that assay was not measured; also called WT ClpX; full-length ClpX; source: E. coli BL21(DE3), purified the same way as TF (Ni-NTA; His-tag removed with TEV protease)) not shown	9.3	
B1		> 2
zinc-binding domain (ZBD) of ClpX (domain or fragment, E. coli, Tag removal rests on the words 'purified by the same procedure as TFN'; Isotopically labelled in one NMR experiment; also called ClpX ZBD; ZBD dimer; source: E. coli BL21(DE3), purified (Ni Sepharose, gel filtration; same procedure as TFN; 100 μM ZnCl2 added before size exclusion)) TDKRKDGSGKLLYCSFCGKSQHEVRKLIAGPSVYICDECVDLCNDIIREEIKEVAPHRER	12.8	
λ phage replication protein λO (natural protein, UniProt P03688 1-333, looked up, replication protein O of phage λ) MTNTAKILNFGRGNFAGQERNVADLDDGYARLSNMLLEAYSGADLTKRQFKVLLAILRKTYGWNKPMDRITDSQLSEITKLPVKRCNEAKLELVRMNIIKQQGGMFGPNKNISEWCIPQNEGKSPKTRDKTSLKLGDCYPSKQGDTKDTITKEKRKDYSSENSGESSDQPENDLSVVKPDAAIQSGSKWGTAEDLTAAEWMFDMVKTIAPSARKPNFAGWANDIRLMRERDGRNHRDMCVLFRWACQDNFWSGNVLSPAKLRDKWTQLEINRNKQQAGVTASKPKLDLTNTDWIYGVDLKTSPHRWLTLTVSRCVGSPTTCRNSTTKSRRYSR	3.8	
